Experimental data from patent US20220411491A1 (Hoffmann-La Roche, published 2022).

Experiments:
human GPRC5D [1] = target: T1, human GPRC5D (human, UniProt Q9NZD1 1-345); assay: cell-based or functional assay
human GPRC5D [2] = target: T1, human GPRC5D; assay: cell-based or functional assay; remark: listed apart in the source
[3] = target: T2, B-cell maturation antigen (BCMA) (UniProt Q02223 1-184, limits assumed); assay: cell-based or functional assay
T2 sequence (looked up): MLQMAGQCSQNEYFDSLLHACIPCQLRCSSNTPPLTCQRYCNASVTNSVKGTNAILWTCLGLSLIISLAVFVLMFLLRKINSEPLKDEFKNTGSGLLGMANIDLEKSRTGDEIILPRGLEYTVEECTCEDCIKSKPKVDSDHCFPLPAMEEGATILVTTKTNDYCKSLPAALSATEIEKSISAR

human GPRC5D [4] = target: T1, human GPRC5D; assay: cell-based or functional assay; remark: listed apart in the source
human GPRC5D [5] = target: T1, human GPRC5D; assay: flow cytometry on NCI-H929 cells expressing human GPRC5D
Description: To measure the binding to GPRC5D, we performed a flow cytometry-based binding assay on reported multiple myeloma cell lines (Lombardi et al., Molecular characterization of human multiple myeloma cell lines by integrative genomics: insights into the biology of the disease; Genes Chromosomes Cancer. 2007 March; 46(3):226-38.). The cell line NCI-H929 (ATCC® CRL-9068) was cultured in RPMI 1640 with Glutamax medium (Gibco) supplemented with 10% FBS, 1× Penicillin/Streptomycin (Gibco), lx Sodium Pyruvate (Gibco) and 50 μM beta-mercaptoethanol (Gibco).
0.1 Mio cells per well of a 96-round-bottom-well plate were incubated with 150 nM to 15 fM (serial dilutions of 1:10) of the indicated GPRC5D IgG constructs 5E11g2 and 5F11g2 or no construct for 30 min at 4° C. […] After two final washing steps, flow cytometric acquisition was performed on a custom-designed BD Biosciences Fortessa and analyzed using BD Diva. EC50 values were calculated, using GraphPad Prism software. […] None of the antibodies reaches saturation in the assessed concentration range.

T1 sequence (Q9NZD1 whole entry): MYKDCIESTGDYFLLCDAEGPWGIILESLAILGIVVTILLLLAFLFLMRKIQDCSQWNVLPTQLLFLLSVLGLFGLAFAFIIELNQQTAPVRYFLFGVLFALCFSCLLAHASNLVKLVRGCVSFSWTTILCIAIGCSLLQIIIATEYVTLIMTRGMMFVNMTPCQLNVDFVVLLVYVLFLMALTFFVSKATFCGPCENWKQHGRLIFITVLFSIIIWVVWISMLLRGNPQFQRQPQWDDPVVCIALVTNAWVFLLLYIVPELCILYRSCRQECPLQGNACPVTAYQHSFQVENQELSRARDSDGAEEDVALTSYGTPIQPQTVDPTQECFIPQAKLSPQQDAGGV

B1: 5E11-TCB (bispecific antibody, human IgG1, kappa, L234A L235A)
light 1: DIVLTQSPALAVSPGQRATISCRASQSVSISGINLMNWYQQKPGQQPKLLIYHASILASGIPTRFSGSGSGTDFTLTIDPVQADDIATYYCQQTRESPLTFGSGTNLEIKRTVAAPSVFIFPPSDRKLKSGTASVVCLLNNFYPREAKVQWKVDNALQSGNSQESVTEQDSKDSTYSLSSTLTLSKADYEKHKVYACEVTHQGLSSPVTKSFNRGEC
light 2: EVQLLESGGGLVQPGGSLRLSCAASGFTFSTYAMNWVRQAPGKGLEWVSRIRSKYNNYATYYADSVKGRFTISRDDSKNTLYLQMNSLRAEDTAVYYCVRHGNFGNSYVSWFAYWGQGTLVTVSSASVAAPSVFIFPPSDEQLKSGTASVVCLLNNFYPREAKVQWKVDNALQSGNSQESVTEQDSKDSTYSLSSTLTLSKADYEKHKVYACEVTHQGLSSPVTKSFNRGEC
heavy 1: ELQLEQSGGGLVQPGGSLTLSCAASGFTFSKYAMAWVRQAPTKGLEWVASISTGGVNTYYRDSVKARFTISRDNAKNTQYLQMDSLRSEDTATYYCATHTGDYFDYWGQGVMVTVSSASTKGPSVFPLAPSSKSTSGGTAALGCLVEDYFPEPVTVSWNSGALTSGVHTFPAVLQSSGLYSLSSVVTVPSSSLGTQTYICNVNHKPSNTKVDEKVEPKSCDKTHTCPPCPAPEAAGGPSVFLFPPKPKDTLMISRTPEVTCVVVDVSHEDPEVKFNWYVDGVEVHNAKTKPREEQYNSTYRVVSVLTVLHQDWLNGKEYKCKVSNKALGAPIEKTISKAKGQPREPQVCTLPPSRDELTKNQVSLSCAVKGFYPSDIAVEWESNGQPENNYKTTPPVLDSDGSFFLVSKLTVDKSRWQQGNVFSCSVMHEALHNHYTQKSLSLSPGK
heavy 2: not shown
EC50 of T cell mediated killing, AMO-1 cells (LDH release) (human GPRC5D [1]): 0.014 nM | EC50 of T cell mediated killing, L363 cells (LDH release) (human GPRC5D [1]): 0.012 nM | EC50 of T cell mediated killing, NCI-H929 cells (LDH release) (human GPRC5D [1]): 7 pM | EC50 of T cell mediated killing, RPMI-8226 cells (LDH release) (human GPRC5D [1]): 0.024 nM | EC50 of in vitro killing, AMO-1 (human GPRC5D [2]): 8 pM | EC50 of in vitro killing, EJM (human GPRC5D [2]): 11 pM | EC50 of in vitro killing, L363 (human GPRC5D [2]): 17 pM | EC50 of in vitro killing, MOLP-2 (human GPRC5D [2]): 18 pM | EC50 of in vitro killing, NCI-H929 (human GPRC5D [2]): 7 pM | EC50 of in vitro killing, OPM-2 (human GPRC5D [2]): 2 pM | EC50 of in vitro killing, RPMI (human GPRC5D [2]): 64 pM

B2: BCMA-TCB (bispecific antibody, human IgG1, kappa, L234A L235A)
heavy 1: EVQLLESGGGLVQPGGSLRLSCAASGFTFSSYAMNWVRQAPGKGLEWVSAITASGGSTYYADSVKGRFTISRDNSKNTLYLQMNSLRAEDTAVYYCARYWPMSLWGQGTLVTVSSASTKGPSVFPLAPSSKSTSGGTAALGCLVEDYFPEPVTVSWNSGALTSGVHTFPAVLQSSGLYSLSSVVTVPSSSLGTQTYICNVNHKPSNTKVDEKVEPKSCDKTHTCPPCPAPEAAGGPSVFLFPPKPKDTLMISRTPEVTCVVVDVSHEDPEVKFNWYVDGVEVHNAKTKPREEQYNSTYRVVSVLTVLHQDWLNGKEYKCKVSNKALGAPIEKTISKAKGQPREPQVCTLPPSRDELTKNQVSLSCAVKGFYPSDIAVEWESNGQPENNYKTTPPVLDSDGSFFLVSKLTVDKSRWQQGNVFSCSVMHEALHNHYTQKSLSLSPGK
light 1: EIVLTQSPGTLSLSPGERATLSCRASQSVSAYYLAWYQQKPGQAPRLLMYDASIRATGIPDRFSGSGSGTDFTLTISRLEPEDFAVYYCQQYERWPLTFGQGTKVEIKRTVAAPSVFIFPPSDRKLKSGTASVVCLLNNFYPREAKVQWKVDNALQSGNSQESVTEQDSKDSTYSLSSTLTLSKADYEKHKVYACEVTHQGLSSPVTKSFNRGEC
heavy 2: not shown
light 2: B1 light 2
EC50 of in vitro killing, AMO-1 [3]: 518 pM | EC50 of in vitro killing, EJM [3]: 132 pM | EC50 of in vitro killing, L363 [3]: 127 pM | EC50 of in vitro killing, MOLP-2 [3]: 32 pM | EC50 of in vitro killing, NCI-H929 [3]: 311 pM | EC50 of in vitro killing, OPM-2 [3]: 33 pM | EC50 of in vitro killing, RPMI [3]: 11 pM

B3: 5F11-TCB (bispecific antibody, human IgG1, kappa, L234A L235A)
light 1: DIVMTQAPLSVSVTPGESASISCRSSKSLLHSNGITYVYWYFQKPGKSPQVLIYRMSNLASGVPDRFSGSGSETDFTLKISRVEAEDVGIYHCGQLLENPYTFGAGTELELKRTVAAPSVFIFPPSDRKLKSGTASVVCLLNNFYPREAKVQWKVDNALQSGNSQESVTEQDSKDSTYSLSSTLTLSKADYEKHKVYACEVTHQGLSSPVTKSFNRGEC
light 2: B1 light 2
heavy 1: EVQLVESGGGLVQPGRSLKLSCAASGFSFSNYGMAWVRQAATKGLEWVASISTGGGNTYYRDSVKGRFIVSRDNAKNTQYLQMDSLRSEDTATYYCTRHDRGGLYWGQGVMVTVSSASTKGPSVFPLAPSSKSTSGGTAALGCLVEDYFPEPVTVSWNSGALTSGVHTFPAVLQSSGLYSLSSVVTVPSSSLGTQTYICNVNHKPSNTKVDEKVEPKSCDKTHTCPPCPAPEAAGGPSVFLFPPKPKDTLMISRTPEVTCVVVDVSHEDPEVKFNWYVDGVEVHNAKTKPREEQYNSTYRVVSVLTVLHQDWLNGKEYKCKVSNKALGAPIEKTISKAKGQPREPQVCTLPPSRDELTKNQVSLSCAVKGFYPSDIAVEWESNGQPENNYKTTPPVLDSDGSFFLVSKLTVDKSRWQQGNVFSCSVMHEALHNHYTQKSLSLSPGK
heavy 2: not shown
EC50 of T cell mediated killing, AMO-1 cells (LDH release) (human GPRC5D [1]): 0.003 nM | EC50 of T cell mediated killing, L363 cells (LDH release) (human GPRC5D [1]): 0.001 nM | EC50 of T cell mediated killing, NCI-H929 cells (LDH release) (human GPRC5D [1]): 1 pM | EC50 of T cell mediated killing, RPMI-8226 cells (LDH release) (human GPRC5D [1]): 0.002 nM | EC50 of in vitro killing, AMO-1 (human GPRC5D [2]): 6 pM | EC50 of in vitro killing, EJM (human GPRC5D [2]): 3 pM | EC50 of in vitro killing, L363 (human GPRC5D [2]): 3 pM | EC50 of in vitro killing, MOLP-2 (human GPRC5D [2]): 1 pM | EC50 of in vitro killing, NCI-H929 (human GPRC5D [2]): 4 pM | EC50 of in vitro killing, OPM-2 (human GPRC5D [2]): 1 pM | EC50 of in vitro killing, RPMI (human GPRC5D [2]): 6 pM

B4: ET150-5-TCB (bispecific antibody, human IgG1, lambda, L234A L235A)
light 1: QSVLTQPPSASGTPGQRVTISCSGSRSNVGGNYVFWYQQVPGATPKLLIYRSNQRPSGVPDRFAGSKSGSSASLAISGLRSEDEADYYCATWDDSLSGFVFGTGTKVTVLGQPKAAPSVTLFPPSSKKLQANKATLVCLISDFYPGAVTVAWKADSSPVKAGVETTTPSKQSNNKYAASSYLSLTPEQWKSHRSYSCQVTHEGSTVEKTVAPTECS
light 2: B1 light 2
heavy 1: EVQLVESGGGLVKPGGSLRLSCAASGFTFSDYYMSWIRQAPGKGLEWVSYISSSGSTIYYADSVKGRFTISRDNAKNSLYLQMNSLRAEDTAVYYCARGYGKAYDQWGQGTLVTVSSASTKGPSVFPLAPSSKSTSGGTAALGCLVEDYFPEPVTVSWNSGALTSGVHTFPAVLQSSGLYSLSSVVTVPSSSLGTQTYICNVNHKPSNTKVDEKVEPKSCDKTHTCPPCPAPEAAGGPSVFLFPPKPKDTLMISRTPEVTCVVVDVSHEDPEVKFNWYVDGVEVHNAKTKPREEQYNSTYRVVSVLTVLHQDWLNGKEYKCKVSNKALGAPIEKTISKAKGQPREPQVCTLPPSRDELTKNQVSLSCAVKGFYPSDIAVEWESNGQPENNYKTTPPVLDSDGSFFLVSKLTVDKSRWQQGNVFSCSVMHEALHNHYTQKSLSLSPGK
heavy 2: not shown
EC50 of T cell mediated killing, AMO-1 cells (LDH release) (human GPRC5D [1]): 0.0835 nM | EC50 of T cell mediated killing, L363 cells (LDH release) (human GPRC5D [1]): 0.768 nM | EC50 of T cell mediated killing, NCI-H929 cells (LDH release) (human GPRC5D [1]): 833 pM | EC50 of T cell mediated killing, RPMI-8226 cells (LDH release) (human GPRC5D [1]): 0.797 nM

B5: 5E11g2 (antibody, human IgG1, kappa, V domains shown)
VH: ELQLEQSGGGLVQPGGSLTLSCAASGFTFSKYAMAWVRQAPTKGLEWVASISTGGVNTYYRDSVKARFTISRDNAKNTQYLQMDSLRSEDTATYYCATHTGDYFDYWGQGVMVTVSS
VL: DIVLTQSPALAVSPGQRATISCRASQSVSISGINLMNWYQQKPGQQPKLLIYHASILASGIPTRFSGSGSGTDFTLTIDPVQADDIATYYCQQTRESPLTFGSGTNLEIKR
notes: Glyco-engineered human IgG1 (GlycoMab technology); afucosylation degree 59.1%; also called BSH-5E11-G7 hu IgG1 G2
EC50 of GPRC5D-IgG induced tumor cell lysis (ADCC, LDH release), AMO-1 (human GPRC5D [4]): 405 pM | EC50 of GPRC5D-IgG induced tumor cell lysis (ADCC, LDH release), NCI-H929 (human GPRC5D [4]): 84 pM | EC50 (human GPRC5D [5]): ~69.5 nM

B6: 5F11g2 (antibody, human IgG1, kappa, V domains shown)
VH: EVQLVESGGGLVQPGRSLKLSCAASGFSFSNYGMAWVRQAATKGLEWVASISTGGGNTYYRDSVKGRFIVSRDNAKNTQYLQMDSLRSEDTATYYCTRHDRGGLYWGQGVMVTVSS
VL: DIVMTQAPLSVSVTPGESASISCRSSKSLLHSNGITYVYWYFQKPGKSPQVLIYRMSNLASGVPDRFSGSGSETDFTLKISRVEAEDVGIYHCGQLLENPYTFGAGTELELKR
EC50 of GPRC5D-IgG induced tumor cell lysis (ADCC, LDH release), AMO-1 (human GPRC5D [4]): 96 pM | EC50 of GPRC5D-IgG induced tumor cell lysis (ADCC, LDH release), NCI-H929 (human GPRC5D [4]): 48 pM
